We go through 7 molecules from patent publication US20140134179A1 (published 2014).

Test [1] concerns the target human TEM8 on CHO cells (CHO-TEM8) (UniProt Q9H6X2 33-564). The test can be described thus: flow cytometry, inhibition of PA-FITC binding.
The next test concerns the target mTEM8. The test can be described thus: ELISA. Background: An ELISA detects its analyte on a solid surface through an enzyme-linked reagent.
Test [2] has as its target T1, hTEM8(ED)-Fc fusion protein (UniProt Q9H6X2 33-321).
T1 chain: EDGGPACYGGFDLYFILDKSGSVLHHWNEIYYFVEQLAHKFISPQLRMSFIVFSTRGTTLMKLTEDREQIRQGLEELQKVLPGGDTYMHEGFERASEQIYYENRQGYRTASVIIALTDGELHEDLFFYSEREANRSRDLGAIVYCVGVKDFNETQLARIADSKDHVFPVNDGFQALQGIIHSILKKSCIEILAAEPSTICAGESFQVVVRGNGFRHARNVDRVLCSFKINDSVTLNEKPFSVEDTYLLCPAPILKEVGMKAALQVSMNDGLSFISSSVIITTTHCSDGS
The experiment in a line: ELISA.

B1: L2 Fab (Fab, V domains shown)
VH: QVQLKESGPALVKPTQTLTLTCTFSGFSLSTSGGGVSWIRQPPGKALEWLAHIYSNDDKSYSTSLKTRLTISKDTSKNQVVLTMTNMDPVDTATYYCARGGYFLDYWGQGTLVTVSS
VL: DIELTQPPSVSVAPGQTARISCSGDNIGGIYVHWYQQKPGQAPVLVIYADSKRPSGIPERFSGSNSGNTATLTISGTQAEDEADYYCQSYDITSLVFGGGTKLTVL
Usually EC50 stands for the concentration at which the effect is half-maximal. High values mean lower potency in that assay, low ones higher potency in that assay. B1 yielded an EC50 in test [1] of 0.0218 µg/mL.

B2: L2 (Fab, V domains shown)
VH: B1 VH
VL: B1 VL
On to B2, for which, in the test with mTEM8, the EC50 was 0.28 nM.

B3: L1 (Fab, V domains shown)
VH: QVQLVESGGGLVQPGGSLRLSCAASGFTFNSYAMSWVRQAPGKGLEWVSLISSGSSTYYADSVKGRFTISRDNSKNTLYLQMNSLRAEDTAVYYCARAGFKFDNWGQGTLVTVSS
VL: DIELTQPPSVSVAPGQTARISCSGDSIPNYSVSWYQQKPGQAPVLVIYADSNRPSGIPERFSGSNSGNTATLTISGTQAEDEADYYCQSYDNTSPDLVFGGGTKLTVLG
Regarding B3, in the test with mTEM8, it took 0.21 nM to reach a half-maximal effect (EC50). This EC50 and that of the molecule before are within 1.5-fold of each other.

B4: L1 Fab (Fab, V domains shown)
VH: B3 VH
VL: B3 VL
On to B4, for which the EC50 came out at 0.18 nM in test [2] and 0.0342 µg/mL in test [1].

B5: L5 (Fab, V domains shown)
VH: QVQLVESGGGLVQPGGSLRLSCAASGFTFNSYGLSWVRQAPGKGLEWVSNISSNGSYTYYADSVKGRFTISRDNSKNTLYLQMNSLRAEDTAVYYCARAGYGLFDVWGQGTLVTVSS
VL: DIELTQPPSVSVAPGQTARISCSGDKLREYYVHWYQQKPGQAPVLVIYGDNKRPSGIPERFSGSNSGNTATLTISGTQAEDEADYYCSSWAGSRSGTVFGGGTKLTVL
B5 gave an EC50 with mTEM8 of 0.22 nM. In other words, the sub-nanomolar range.

B6: L3 Fab (Fab, V domains shown)
VH: QVQLQQSGPGLVKPSQTLSLTCAISGDSVSTNGAAWGWIRQSPGRGLEWLGRIYYRSKWYNDYAVSVKSRITINPDTSKNQFSLQLNSVTPEDTAVYYCARMPGGFLFDLWGQGTLVTVSS
VL: DIELTQPPSVSVAPGQTARISCSGDNIRSYYAHWYQQKPGQAPVLVIYGDSKRPSGIPERFSGSNSGNTATLTISGTQAEDEADYYCSSYASHDYVFGGGTKLTVLG
For B6, a half-maximal effect in test [1] (EC50) was put at 0.0364 µg/mL.

B7: L3 (Fab, V domains shown)
VH: B6 VH
VL: B6 VL
In turn, B7 gave an EC50 with mTEM8 of 0.36 nM.
